Measurements published in the supplement of paper PMC9170038.

System: K4 kissing-loop RNA reporter
Test: apparent KD of K4 kissing-loop reporter; higher = weaker reporter binding
Conditions: Eterna round: R107
Protocol: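 RNA-MaP round R107: designed RNA switches with theophylline, tryptophan, arginine or FMN aptamers are transcribed on-chip within common flanks. They are titrated with a labelled K4 kissing-loop RNA reporter in RNA-MaP buffer (100 mM Tris pH 7.5, 80 mM KCl, 4 mM MgCl2), without ligand or with the indicated ligand. Median apparent KD per design.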

[1] = input ligand: theophylline 20 uM
[2] = input ligand: tryptophan 2.4 mM
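Also: bound reporter read as fluorescence of individual clusters on recovered sequencing chips by microscopy, with normalized cluster intensities fitted with a binding model.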

Sequence	apparent KD of K4 kissing-loop reporter (input ligand: FMN 200 uM) [nM]	apparent KD of K4 kissing-loop reporter (input ligand: arginine 13.2 mM) [nM]	apparent KD of K4 kissing-loop reporter (input ligand: none) [nM]	apparent KD of K4 kissing-loop reporter [1] [nM]	apparent KD of K4 kissing-loop reporter [2] [nM]
AAGUGUGUGGCGGCCGCCACUAGUAUCCAGUGAUGUUGGAGAUAUCACGUAAGUGAUAUCCAACAUAGGACCGGGCCAUAUAGAA [Same State - Tryptophan B (Freestyle 17)]	145	78.3	101	189	93.1
AAGUUUUAUAAACUCAUGGUUUCGACAGAUACCAGCUUCGAGAGGAGCCCUUGGCAGCUGCAUGAGUGAUGUUCAUGUACGAAGA [KL-XTheoA8]	377	362	480	416	359
AAUAAAAUCACGGCCGCCACUGAUGCUAAUAUUGGCAGUGAUGUUGCUAUGUAUAUUUUAUUUGACAGGACCGGGUGAAUAUUUA [#24 K4 Tryptophan B Exclusion]	224	198	245	263	137
AAUAAAAUCACGGCCGCCACUGAUGUUAAUAUUAGCAGUGAUGUUGCUAUGUCGUUUUUCUUUAACAGGACCGGGUGAAUAUUUA [#22 K4 Tryptophan B Exclusion]	156	150	170	171	148
AAUAAAAUCACGGCCGCCACUGAUUAUUUUAUUAGGAGUGAUGUUCCUAUGACAGUAUGCCUUAACAGGACCGGGUGAAUAUUUA [#19 K4 Tryptophan B Exclusion]	122	125	144	143	156
AAUAAGGUCGCCGAUACCAGCGCGGGCAGAGCAAAGCUCUGCCCGGUAGUGAUGUUACCGCGCCCUUGGCAGCGGUGGCACGACC [Omei KL Theo B SS C v6]	152	58.3	126	159	63.3
AAUAAUAAUAAAUAUAGAUUGAUGAGCAAACGAGGACCGGUACGGCCGCCACUCGAGUGAUGUUCGAGAAGCUCAUCAAUCAUAA [AK4.6 Exc Tryptophan A]	180	131	141	141	372
AAUAAUCUAGGUGAUACCAGCUCAACAUGAGUGAUGUUCGUGAGCUAAUGUAGAGUUGAGAGCCCUUGGCAGCACCUAGAUAAUA [KL-SSTheoB7]	698	552	943	1140	626
AAUAUCUAGUAUAUUUUUAAUAAAACAGAUACCAGUGAUAAUAGACACCCUUGGCAGCUGGUCGAGUGAUGUUCGUUUAUUUUAA [JR_SSTheophyA_Sub005]	82.5	79.5	105	168	60
AAUCAAUACAGAAGGAGCGUGACAGUUGCGAGUGUAAUUUUAGCUAGUGAUGUUAGCAUUUCACAGGUAGGUCGCUGUACAUUUA [#05 K4 Arginine B Same State]	115	134	133	140	105
AAUCGCGAGUCAGAUACCAGUUGGCUCGAGAGUCAGUGAUGUUGAUGUAAAUCUUAGGCGAACCCUUGGCAGCUGUCACCAGUCC [theeternabot_sameState_KL_Theo_B_27]	404	326	354	346	325
AAUCUCGUCCUGGAUACCAGUCGCACGGUUUGUCAUGUCAGCCAGUGAUGUUGCCUGCAUGACCCUUGGCAGCCAUUCUAUGAAU [theeternabot_exclusion_KL_Theo_B_45]	284	230	311	334	246
AAUGAUGAUUGACACAUUUACUAAAAGGAAGGAGCGGCGAUGUGGCCAGGUAGGUCGCCUUUUAGCAGUGAUGUUGCUAUAUGUU [JR_Nu_ExcArginiA_Sub026]	84.5	108	111	152	70.4
AAUGUAAUGACGGCCGCCACUGAUUACCAGUGAUGUUGGUAAAGAACUUUAUAAGUCCUGGAAACCAGGACCGGGUCAACGGUCC [Tryp B Ex t1]	345	294	318	309	258
AAUGUAUACUGAAGGAGCGAGUAGUGGAAACAUAAACUCAAUGCGAGUGAUGUUCGCAGUACUCAGGUAGGUCGCAGUAAUGGUA [Exclusion Arginine B Gf 8]	522	311	537	468	406
AAUGUGCAGGGAAGGAGCGUAGUCCAGUGAUGUUGGAGUUAAAUACCAGUGAUGUUGGUUAUACAGGUAGGUCGCCCUAAAGCGC [Exclusion Arginine B Gf 5]	73.5	67.7	81.3	98.3	71
AAUUAAUACAGAAGGAGCGUGUAUUUAACUACAAUUAUCUUAGCGAGUGAUGUUCGUUUUACACAGGUAGGUCGCUGUAUAUUUA [JR_ExcArginiB_Sub010]	201	279	235	262	157
AAUUCUUAUCUUAGUAGAUUUCUAAUUAAACGAGGACCGGUACGGCCGCCACUCGGUUAUGAGUGAUGUUCAUGGAAUUACAUAA [JR_SSTryptoA_Sub018]	285	486	467	486	172
AAUUUAUUAACUGAUACCAGACUUAAUAAAUUGUAAAUUACUAGUGAUGUUAGUGAAUUUGUCCCUUGGCAGCAGUAUUUAUUAA [JR_ExcTheophyB_Sub009]	123	133	124	141	106
AAUUUGGGUUCGGCCGCCACUCCAGUGAUGUUGGAUGGCGAAAUAAAGGCUAGACCAGGUUGCCGGAGGACCGGGAAUCCUGUAC [Qumabi]	182	152	164	139	112
ACAUCGGUUGAGAGUGAUGUUCCUUGUGUUCGAGGACCGGUACGGCCGCCACUCGGGUAGAAAAUAACAGAUGUGUUUCAUUUUU [BDazzled - #17 SS Tryptophan A]	180	93.2	141	277	271

Sequence	apparent KD of K4 kissing-loop reporter (input ligand: FMN 200 uM) [nM]	apparent KD of K4 kissing-loop reporter (input ligand: arginine 13.2 mM) [nM]	apparent KD of K4 kissing-loop reporter (input ligand: none) [nM]	apparent KD of K4 kissing-loop reporter [1] [nM]	apparent KD of K4 kissing-loop reporter [2] [nM]
ACCUCACAGUGAUGUUGUGAGCCGAUAGUGAAGGAUAUUGUAAAGUCAAGAAGGUCAUGUCAGUCACAAAACGUUAAGCCUCGCA [theeternabot_exclusion_KL_FMN_A_19]	275	218	254	266	194
ACGAAAUGCGACUCCUAGUUACACCGGGAAGGAGCGCGGAUAACCGCAGGUAGGUCGCCCGGAAGCCGGACCAGUGAUGUUGGUC [Exclusion Arginine A Gf 27]	240	273	182	165	217
ACGACGCAUAGUGAUACCAGCAUUAUAUGAGUGAUGUUCUACCUAAAAUGGUAAUAAUGAUGCCCUUGGCAGCACUAUGCGUCAG [KL-SSTheoB2]	400	453	461	638	283
ACGACUGGAUGAAUAACAUCUAGUCGAGAUCGAGGACCGGUACGGCCGCCACUCGAGCUAACUGCGAGUGAUGUUCGAUAAUAAA [#OpenEnded 2]	277	302	253	200	88.4
ACGCGCGAGACGGCCGCCACUAUACGUCGAGUGAUGUUCGAGCCAAGAUGUCGUUACGUUUAUAAUAGGACCGGGUCAAUGGAUU [theeternabot_sameState_KL_Trp_B_19]	596	512	583	661	513
ACGGAUACGCGAGAUACCAGAGGCAUUCGCCAGCGACCAUAAUGUCCCGAGAGUGAUGUUCUCCCUUGGCAGCUCAUGGUUAAUU [theeternabot_exclusion_KL_Theo_B_2]	484	400	468	570	385
ACGUCUCGUAAACUCGUGGUUUCGAUCGAUACCAGUAGCGAGAGUUACCCUUGGCAGCGACAUGAGUGAUGUUCAUGUACGAAGA [KL-XTheoA2]	99.3	88.5	93.1	89.8	90.3
ACGUGCACCAGUGAUGUUGGAAAAUAUGAAGGAGCGGGAGAAAACCCAGGUAGGUCGCAUAAUUGCACGAGCCACGAAAGUGGCA [#15 K4 Arginine A Same State]	73.4	93.7	88.3	145	70.8
ACGUGUCACUGAAGGAGCGUCUACCGAAUACGAGUGAUGUUCGUACACCACUGAUAUAGUGGACAGGUAGGUCGCAGUGAUACGU [Arg B Ex t3]	120	101	122	102	107
ACUAUCCGUAUAUAUAAGAUAGCUGGAGAUACCAGUUCAAUCUUGAACCCUUGGCAGCUCACCACCAAGUGAUGUUUGGCACGAC [theeternabot_sameState_KL_Theo_A_42]	326	241	326	292	273
ACUGUACCGGGAAGGAGCGUGAAUGAGAAUGGAUAUAGUGAUGUUAUGUAUACGAACGAAUCGCAGGUAGGUCGCCCGGAUCCCU [SSArgB.aC]	617	322	398	851	553
AGAACUGUCUGAGAUACCAGCUAAGGAGUGAUGUUCCUAGGUCCACGAAAGUGGACCCAUAGCCCUUGGCAGCUCAGACAGUUCA [#23 K4 Theophylline B Same State]	1280	833	1370	674	1160
AGAACUGUCUGGGAUACCAGCCGAGGAGUGAUGUUCCGGCUCGACGAAACGUCGAGCUACGGCCCUUGGCAGCUCAGACAGUUCA [#22 K4 Theophylline B Same State]	1990	639	1170	735	340
AGAACUGUCUUGGAUACCAGUGAUGUUGGUAUCUAUGUGUGAGUGCAAAGCGUCCCACAUUGCCCUUGGCAGCUAAGACUGUUCA [Omei KL Theo B Exc A v2]	154	132	146	216	145
AGAAGGAGACUUGCAACGACUCCUUCAGACUAGGAUAUCAGGAAACUGAGAAGGAGUCUACUUGCAGUGAUGUUGCAAGAAUAAU [[F]''-[K]'-[F]'-[F1]-[F2]-[K1]-[K2]_Design3]	129	147	130	135	125
AGACCUCAGUGAUGUUGAGGUAACACUGAUACCAGCGACUUAAUUCGCCCUUGGCAGCAGUCCACCGAGGUAUCUGAUUAGGUCA [#24 K4 Theophylline A Exclusion]	171	173	179	273	155
AGACUACUGACAGGAUAUAACAUCCUGGUCGUAUACCGAAAGGUAUACGAUUUCCUUCUAGUGAUGUUAGAAGGGUCGGUAGUCA [Omei KL FMN B Exc B v14]	103	78	90.7	70.3	82.9
AGACUACUGAUAGGAUAUAACAUACUACCUCGUAUACCAAAGGUAUACGAGGCCCUUCUAGUGAUGUUAGAAGGGUCGGUAGUCA [Omei KL FMN B Exc B v5]	93.5	76.4	79.5	81.2	83.2
AGAGAUAUAUGAGGAUAUGAGAUAGUUAAUGAGUGAGUUUUAGUGUUGUUUGGUUAGUGAUGUUAUUUAGAAGGCGUGAGUGAUG [grrfullin]	97.7	66.5	70.2	80	65.7
AGAGUACGAAAGUACUCCUCUACACACUGACGAGGACCGGUACGGCCGCCACUCGAGUUGAGUGAUGUUCGAUAGUGUGUAGAGA [Omei KL Tryp A SS C v3]	213	38.4	97	312	1120
AGAUAGGGCUGAAGGAGCGUCGGAGAAGAGAAGAAGAAAUCCAGUGAUGUUGGAUAAAUCCGACAGGUAGGUCGCAGUUUUAUGA [hbob_SS_Arginine_B_2t137]	122	135	115	179	119
